# In the domain aggregation screens of Martell et al. (2025):
# Experiment: soluble fraction after stress (log2 fold change); higher = more stays soluble; pooled small domains, quantitative proteomics
# Conditions: stress: 50 degC
# Summary of the method: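 The stress applied to every library was 50°C. These custom libraries of small protein domains were pooled and measured at high throughput with quantitative proteomics as the read-out. Aggregation propensity is expressed as the base-two logarithm of the fold change in how much of each protein remains soluble. The higher the value, the more of that protein stays in solution.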
row,Sequence,soluble fraction (log2)
1,HMGLQEADKQDRIARMKELISFLNEAAKAYYQEGREIVSNLEYDKAYDALLSLEKESGVVLSGSPSQNVG,0.147
2,HMPRKLDDQLQEQIRYLKSNYPRMSAAGIFRQLQDNGSIKHGDVSESTINRYVNLLSIEMKTTT,-0.223
3,HMRLDVALRGVLLDGDPTQSRAFVLVSGTTSTYRLGETVQSAELVAINADTITLRTETGLHVIGFDGLI,-2.48
4,HMAVVEVATTTATEYKVEKGHHFKVGDFVMFKTGAKSYAITAIDTTSPIFDKITVGTTLGEAIPVGGTLM,-1.38
5,HMSIITLFQEINAAVAEATGGRVPESVVQNFILGKDVVIPEDVKEIIISKLKAFATDIEGMLEESGFD,-0.909
6,HMIVVMAADSSREDLDLVQGRIEARGLRAQISQGVERIVIGVLGSLPPDLKDEMELLPGVREVLVIS,-0.405
7,HMEDEVYFVPSPASRFNPWIAALASRRVPYRVEYDGAERRIAVPAGYAEKAGEELAAYERINHAWPR,-0.271
8,HMEVHLMPGTVLLREYESNEYRVTVTPEGFYDLNGKVFKSLSAVARHITGVNWSGPRFFGVEP,-2.08
9,HMGVARGQAQVTTRQHVVQPGETLYQISKQYGVTVAEILRYNADIEDNTVKVGQTLQIPTPLP,≥ 0.62
10,HMEHNDPEVERTMFQGLEALKLQLFEKAFGHFSLLIKLAPDYAEAWNKRATVLYLMGRFKESESDVMRTLE,0.0585
11,HMRYPLPYAFARSQQLLLEETDDGRYTLWMSSHPARSAVGEVSRKYGVQTFEVLADGPLAQRISAAYAQ,-1.37
12,HMADKHVAAALLKLMDHLVGGRQYAFMKGRLTINKKVVLEATEVSAYRRGTGLSDADWQQRYE,-1.97
13,HMDNNNQAAFMGALNSLKEYAKVNGNIVTKQDVESYFKDLGLDDSKYQMITGYLLANDITVKG,0.0282
14,HMQTTEDMEINAKVDEYLREMYLWNDEYKTLNLDHNKGYEDFFYDALGSMTTNTLDKKTYVGSDGKTYYNL,-0.248
15,HMMTLEESYKLLQVSHNASDIEITKAFKKLALLYHPDKNPSNIDWANKAMASINVAYNTIITHRFKEK,-0.628
16,HMTQQNRDELYRRMIDAGWDQLVRNGIRSLRVEQVAAAVGIAKGTFYHFFDSKDDFIYAMLMENRQ,-3.07
17,HMALEVPGIAKDKIYRIFGQLYERQQKWEDAIDYYNRAVFFTLSGTDMILYQEDLSRVKQKISL,-0.0269
18,HMEHDYGLSGREREVLELMVQGLVKKEIADRLALSYHTVDNHLRSIYAKLQVHTRGGAVAKALSEHLVPP,0.217
19,HMNIGSKLRYLIEEANITQRQLADALHISPSALNGYINQGKEPDYATLVRIADYFHTSTDYLLGHSNIR,-0.00171
20,HMRSAKLPYSEFLKLVDTDKVNDVSIVGRTISGHLDDGSKFSTYTPPNDPNIIEKLSSHNVIINSAPE,-0.0117
21,HMSSLREQVADALRAHLVSGRMRPGVLYSAPKLAAEFGVSATPVREAMLDLVSEGLVDVVRNKGFRVT,-0.344
22,HMSGFPTDAQIVREIRNILPTLENPTPRMVRKALENTFEVDMGESKTKKYINNIIITEYEKWSSVQSIRE,-0.534
23,HMRKIKDVLRLKLHAGLSHERVAASLNISKGVVAKYTSLAAAAGLDWPTVERLSEAALERRLV,-0.135
24,HMKVNIGDQVYNQMKDQIMSGVWVPGEKIPSENQLMEVFGVSRGTVRQAIQKLSAVGLLETRRGEGSYVGQ,-0.115
25,HMATTTEPTSPPAATASLEAKINWLFLIFRNKKTVTASEQKFHAEDASTVVGKETLTDDGTTMTKGETAAG,0.0862

row,Sequence,soluble fraction (log2)
1,HMESYNIVEQVLTKKILSKGNTLAKLSNEFDGLVMLVIRGDEFIIPNGETLLFEKDILVINNGP,-1.72
2,HMSILDEAEFKKIESALLDFITNNIFTVKELLQASRGIKQDKFWKVFQFLQSERKVVVNELGYIEL,-0.205
3,HMKGHQASTTWISERVKDIIKEDPTLGARKLQKRLEIHYNIELSYFKVWSGKNLQWMIFMVL,0.022
4,HMRLADHVVEKLLALVQDRGLQPGQKLPAERQLAEELGVSRTSVREAIQKLTSQGVLSARRGDGTYLQS,0.0556
5,HMGGLAEIILNAIEIEGGFLPITDKSAPELIQSRLGMSKKAFKEAVGTLYKNRDIAIEPNGLRKI,0.0577
6,HMGQAVTVPELKGLSFDEAIEKLDDAGLKYEVVDSNYVEDMKPGTVFETLPEAGSRVKPRRIVFLTINAF,-0.319
7,HMRDPFDALSARERAVASLVQRGLRNKEVASELGLTEGTVKVHLHKVFDKLGIRGRTELILLAQER,-0.79
8,HMKTKTAPPDSIPPAWLKESATLRPDLNQAQIKASAEVFLDHHRAKGTTLADWRPAWRNWIRRERA,0.116
9,HMEYREFEAMTIRAIATLPPTQGHVIMLSRFEGLDNKEIALRLNLSLQTVKNTLTQGLKELKNKMRKLP,-1.8
10,HMAMYYVIGGDGQQYGPIDEATVRGWLGEGRVSAASLSFKTGEAQWIPLRDRPELADVLATA,0.112
11,HMTEPKRIVDHWQPSDDVYDILRMSHIDLDFARSLLPEFIVYWKDSSQTHTSWNSKFLQHAKYHWAKRHQL,-2.08
12,HMEAALTLRVDKAGSLRSLLSDEQYAKTSKIIVSGEINTLDIKTLQEMSGEKGSLQSIDLSQANIVAY,-0.00676
13,HMRPEFVVALSGADLGKLHRLYELGEVLSREDDAEGVTHAVLRVPDKHEHAFHAEFPQARPM,0.378
14,HMNKRYKVQVTTDNLKIRKGAGTSYPVVGHITDKGTYTIVETSGKWGKLLSGAGWIYLSYTKK,-1.76
15,HMDGLAEQLFNILREELESGDYKPGQKLMSESALAQKYGVSRLTVRAAIARLSALDYVETRNGEGSFVKKR,0.0422
16,HMVEDPADNQKAADAVIKKISEIGEVTESSENLIKEARASYDALTDNQKELVTNYDVLVQAEAQLENIKD,-0.0306
17,HMEQMSPYPNPSKGKIQFHNQEPMDIKVFNSLGQIVFEQRILSRAILDLSRLSPGQYIVQAGEQKNIWIK,-0.699
18,HMRMLLEERLDEIVKIVNERGSISNQELVKMFGASESTIRRDITTLANDNRVIRVHGGAMSVVS,-0.0564
19,HMTGETWAERSRALAAAGLIVMGQEAKNKIEDLPSLSPLIEAAAASETRLLTGQIIDELLAFV,-0.288
20,HMEIELHNLALNIKEFRKKNKLSQAELAEKLGVARTTIGYYERAEVEPNIYTLVQLSKLMNRSIDSLLGL,-1.3
21,HMDHVEDRMVLEVVLKKLTEEERRIVMLHAVSGLKHREIAKALDIPLSTVLSKYKRTLKKLEAYLMEME,-1.78
22,HMEFDVELTSFEEAKKLKVIKEVKDVTGLSLGEAKDLVMGAPKAIKTGVSKEEAEAIKTQIEAAGAVVTI,0.122
23,HMKHYMKITDISLQTRDKNRVNVSVDGKYRFSLDVFQVGELGLKVGREYTDEELTALEDESQFG,-1.41
24,HMGPLPIDSRYFNNLVPYTGITHVNSVIPEAERHIGLTVVVKTGSTYSEYWYRTGVTNSSLELKT,-0.634
25,HMKPVTVINFVGMTEEKAMTEAEKLGLVVGASSSEYSDEPAGTVIRQSISVSTEAKTGDNIYFTVSKGPE,0.163

row,Sequence,soluble fraction (log2)
1,HMDHKSALQELLAPRGLQPSYRLVEEAGPAHARVFTSEVSVDGVARGSGTGTTIKMSEQAAAREALASLG,0.223
2,HMNSKMTYSDLIGNIEQGNVSSVELASDGKSATVTLTDNSQKQVNIPSLDSFVTYVQDHIKAGTLSVEE,0.000127
3,HMGTFIATVEANSLDIYKSMSSNETIGKANKGEVFQILEDMGSGYARVSYNDVEGYLSIRDGDATIEE,-0.356
4,HMSAEKDGEWLTLTEAAKHLQVSPHVIRRLIQTGALPAEQVMRGAPHQIRAADLDTDRVKTMIAR,0.193
5,HMRKGDDRLRAQVDEYISKQGNNTFNYKQVAHAINATSPISQRAVALYLAELAFDGDLLETAPGRYKSPSR,0.0382
6,HMPQETPIPKSEIQSYDEIWLEPISTDNILRNELRGWYHVKDRWVENEFGNRFYLDTYASKWLAFPS,-0.0557
7,HMQNYLLFEEAKNIVNTLNLTNEKDWSEFIKKDFTYKNQIPIFPNQYYKHKGWVDWNDWLGINK,-1.56
8,HMDLMSTNEKLLYTMRYLISKSLDGAITEEEIRRLDRLIIENSQARAYYVEYLQIHTHLRKLMQQNPELK,-1.97
9,HMPNLAAAIGARVTIRLREASGGFRDIVGTLQRFGDGVNELLNSKGQIISFSEDEIAIWREIK,-0.816
10,HMIGELVVEDLAAASEINVDTIRYYQRLGLLEPPRRRGRRAVYDHTHLERLAEIRRLAGAGFTLAQIGRLK,-2.53
11,HMAHRYQQIADDLGRRVEAGEFAAGRLLPSEATLSGQYKASRVTVRKALEALRTDGLVESRQGFGWFVAAD,-0.379
12,HMAVKPIDRLRSLMAESNVTDAELQKVVADKGHYAADAPIDSYSEKFISGWLIKYWSQILNLINADRTVL,-0.0363
13,HMAFEDYAGEYRSAADFAESLHEDTGTEIPESLRYYIDWQALARDMALNGEIMVFQTGFDEVHIFWS,-0.517
14,HMSQSDLASAIGARVTIRLREASGGFRDIVGVLQRFGSGYGELINSKGEALTFSESEIAIWREVKA,-0.358
15,HMDTTLFGLFQNVILTQEDYEELSRTIVEDLDGLIDRLSAYMTSTGKTYKNHKATLLSWYLQDEKKFK,-1.82
16,HMEFEYTVVVPETRGKTIGEAGRILLDLELKYTSESMNIREDSKVIDQFPSPGTEVSKGSIIDLYLDE,0.0563
17,HMDSPALAIPSSAILRDGLEHIFFRQDPSDPDQVIRVVADLGLSDGRWTVVRSGLERTDQVVLSGA,0.0102
18,HMGLSASVIQMFADLGYTSEGRSTKEMITDYQIDHSIIKNSTEDGAGTYGPRTKASLSTVHAQYI,-0.103
19,HMNHGDATTETQAEIMAILSDMKPHPITELNTIKRPYEQIDTALTYLINEEKIYRMDGMIFIG,-0.694
20,HMTLTLEQAAAIKNSEGEQYGKIESERLAAMSVQIDKAIKSNGHDPNKKADLERKLDAIGIILNARAAG,0.122
21,HMGYPYDTVTTAKVNLRAKRSTSSDILKKIPEGATVTVKGVTGTFASVDYNGTSGYVKVDYLV,0.069
22,HMIAKEDDGTAFLIDGKISSEEEFKTISKDDILEVFVYKETEIAQKKLDSINSINNTYYTSLIEILLKE,-0.127
23,HMDASSAVQFGSLLRDARRRQGLSQAELGGDKYSGSYISHLESGRRVATPEVIEFLSRRLGVSPLEWGVS,-0.0679
24,HMGDLAAAGNHTLEVMGFPQHPDESYRHFVGNGIPKLIERMLPAGHDKETEQKAYDIFMEYYSAHK,0.227
25,HMNYEFLEKIGFSSNEAKVYGTLIKHKVLNGYEIAKLSGVARSLVYEVINRLVAKGAVIRIDGEPNFYKP,-1.8
